Where no end group is shown, it is not given here. [ ]: non-standard residue; d: D form. Bip(2'-Et-4'-OMe) = CCc1cc(OC)ccc1-c1ccc(C[C@H](N)C(=O)O)cc1; αMePhe(2,6-F2) = C[C@](N)(Cc1c(F)cccc1F)C(=O)O; αMePhe(2-F) = C[C@](N)(Cc1ccccc1F)C(=O)O; αMeBip(OMe) = alpha-methylated Bip(OMe); hhPhe = N[C@@H](CCCc1ccccc1)C(=O)O; αMeD = C[C@](N)(CC(=O)O)C(=O)O; αMeP = C[C@@]1(C(=O)O)CCCN1; αMeAPPA = not defined here; αMeS = C[C@](N)(CO)C(=O)O; Aib = CC(C)(N)C(=O)O

This assay deals with human glucagon receptor (human, UniProt P47871 26-477). The assay is described as follows: cell-based or functional assay.
Sequence of human glucagon receptor (P47871 26-477): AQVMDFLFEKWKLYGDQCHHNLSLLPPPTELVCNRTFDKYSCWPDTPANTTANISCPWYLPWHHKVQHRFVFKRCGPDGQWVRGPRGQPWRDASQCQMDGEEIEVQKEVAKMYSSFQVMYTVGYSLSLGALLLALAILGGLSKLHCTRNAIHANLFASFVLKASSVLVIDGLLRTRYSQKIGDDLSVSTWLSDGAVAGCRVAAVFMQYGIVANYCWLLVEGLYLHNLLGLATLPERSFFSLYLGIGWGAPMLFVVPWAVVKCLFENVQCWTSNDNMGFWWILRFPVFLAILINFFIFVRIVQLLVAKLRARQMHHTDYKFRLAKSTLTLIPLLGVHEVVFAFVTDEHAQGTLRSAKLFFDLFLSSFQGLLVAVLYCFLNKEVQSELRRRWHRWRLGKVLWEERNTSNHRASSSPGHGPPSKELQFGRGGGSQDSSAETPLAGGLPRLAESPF

B1: Seq. ID. No. 47 (peptide)
peptide: VH[Aib]EGT[αMePhe(2-F)]T[αMeS]D[αMeBip(OMe)][hhPhe]-NH2
Consider B1, for which the “cAMP production (pmol/ml/µg prt) with saturated glucagon peptide, at 1 nM” value (“cAMP production (pmol/ml/µg prt) … at 1 nM” below) is 9 pmol/ml/µg prt; the “cAMP production (pmol/ml/µg prt) with saturated glucagon peptide, at 10 nM” value (“cAMP production (pmol/ml/µg prt) … at 10 nM” below) was found to be 6 pmol/ml/µg prt; the “cAMP production (pmol/ml/µg prt) with saturated glucagon peptide, at 100 nM” value (“cAMP production (pmol/ml/µg prt) … at 100 nM” for short) is 5 pmol/ml/µg prt; the “cAMP production (pmol/ml/µg prt) with saturated glucagon peptide, at 1 µM” value (shortened to “cAMP production (pmol/ml/µg prt) … at 1 µM”) was determined as 3 pmol/ml/µg prt. The “cAMP production (pmol/ml/µg prt) with saturated glucagon peptide, at 10 µM” value (from here on “cAMP production (pmol/ml/µg prt) … at 10 µM”) is 0 pmol/ml/µg prt.

B2: Seq. ID. No. 163 (peptide)
peptide: VH[Aib]EGTFT[αMeS]D[αMeBip(OMe)][αMeAPPA]
modifications: not fully specified (C-terminus); printed as VH-Aib-EGTFT-(αMe-Ser)-D-(αMe-Bip(OMe))-(αMe-APPA); reading uncertain
B2: the “cAMP production (pmol/ml/µg prt) … at 1 nM” value is 15 pmol/ml/µg prt; the “cAMP production (pmol/ml/µg prt) … at 10 nM” value was found to be 12 pmol/ml/µg prt; the “cAMP production (pmol/ml/µg prt) … at 100 nM” value was determined as 8 pmol/ml/µg prt; the “cAMP production (pmol/ml/µg prt) … at 1 µM” value was determined as 4 pmol/ml/µg prt. Besides, the “cAMP production (pmol/ml/µg prt) … at 10 µM” value stood at 2 pmol/ml/µg prt.

B3: Seq. ID. No. 200 (peptide)
peptide: VH[αMeP]QGT[αMePhe(2,6-F2)]TS[αMeD][αMeBip(OMe)][αMeAPPA]
modifications: not fully specified (C-terminus); reading uncertain
Regarding B3, the “cAMP production (pmol/ml/µg prt) … at 1 nM” value is 10 pmol/ml/µg prt; the “cAMP production (pmol/ml/µg prt) … at 10 nM” value was found to be 8 pmol/ml/µg prt; the “cAMP production (pmol/ml/µg prt) … at 100 nM” value came to 6 pmol/ml/µg prt; the “cAMP production (pmol/ml/µg prt) … at 1 µM” value came to 4 pmol/ml/µg prt. The “cAMP production (pmol/ml/µg prt) … at 10 µM” value worked out at 1 pmol/ml/µg prt.

B4: Seq. ID. No. 80 (peptide)
peptide: VH[αMeP]EGT[αMePhe(2,6-F2)]TS[αMeD][αMeBip(OMe)][hhPhe]
modifications: not fully specified (C-terminus)
For the molecule B4, the “cAMP production (pmol/ml/µg prt) … at 1 nM” value stood at 0 pmol/ml/µg prt; the “cAMP production (pmol/ml/µg prt) … at 10 nM” value is 0 pmol/ml/µg prt; the “cAMP production (pmol/ml/µg prt) … at 100 nM” value is 0 pmol/ml/µg prt; the “cAMP production (pmol/ml/µg prt) … at 1 µM” value worked out at 0 pmol/ml/µg prt. Moreover, the “cAMP production (pmol/ml/µg prt) … at 10 µM” value amounted to 0 pmol/ml/µg prt.

B5: Seq. ID. No. 87 (peptide)
peptide: VHSEGTFTSD[Bip(2'-Et-4'-OMe)][αMeAPPA]
modifications: not fully specified (C-terminus); printed as VHSEGTFTSD-Bip(OMe)-(αMe-APPA); reading uncertain
In the case of B5, the “cAMP production (pmol/ml/µg prt) … at 1 nM” value was 5 pmol/ml/µg prt; the “cAMP production (pmol/ml/µg prt) … at 10 nM” value turned out to be 3 pmol/ml/µg prt; the “cAMP production (pmol/ml/µg prt) … at 100 nM” value came out at 1 pmol/ml/µg prt; the “cAMP production (pmol/ml/µg prt) … at 1 µM” value was found to be 0 pmol/ml/µg prt. The “cAMP production (pmol/ml/µg prt) … at 10 µM” value is 0 pmol/ml/µg prt.

B6: Seq. ID. No. 30 (peptide)
peptide: VHAEGT[αMePhe(2,6-F2)]TSD[αMeBip(OMe)][hhPhe]-NH2
For B6, the “cAMP production (pmol/ml/µg prt) … at 1 nM” value came out at 5 pmol/ml/µg prt; the “cAMP production (pmol/ml/µg prt) … at 10 nM” value amounted to 3 pmol/ml/µg prt; the “cAMP production (pmol/ml/µg prt) … at 100 nM” value came out at 0 pmol/ml/µg prt; the “cAMP production (pmol/ml/µg prt) … at 1 µM” value came to 0 pmol/ml/µg prt. The “cAMP production (pmol/ml/µg prt) … at 10 µM” value is 0 pmol/ml/µg prt.

B7: Seq. ID. No. 167 (peptide)
peptide: VH[Aib]QGT[αMePhe(2-F)]T[αMeS]D[αMeBip(OMe)][αMeAPPA]
modifications: not fully specified (C-terminus); reading uncertain
Consider B7, for which the “cAMP production (pmol/ml/µg prt) … at 1 nM” value came out at 9 pmol/ml/µg prt; the “cAMP production (pmol/ml/µg prt) … at 10 nM” value amounted to 6 pmol/ml/µg prt; the “cAMP production (pmol/ml/µg prt) … at 100 nM” value came to 5 pmol/ml/µg prt; the “cAMP production (pmol/ml/µg prt) … at 1 µM” value was determined as 3 pmol/ml/µg prt. For the same molecule, the “cAMP production (pmol/ml/µg prt) … at 10 µM” value is 0 pmol/ml/µg prt.

B8: Seq. ID. No. 199 (peptide)
peptide: VH[Aib]QGT[αMePhe(2,6-F2)]TS[αMeD][αMeBip(OMe)][αMeAPPA]
modifications: not fully specified (C-terminus); reading uncertain
Regarding B8, the “cAMP production (pmol/ml/µg prt) … at 1 nM” value worked out at 14 pmol/ml/µg prt; the “cAMP production (pmol/ml/µg prt) … at 10 nM” value stood at 11 pmol/ml/µg prt; the “cAMP production (pmol/ml/µg prt) … at 100 nM” value came to 7 pmol/ml/µg prt; the “cAMP production (pmol/ml/µg prt) … at 1 µM” value came out at 3 pmol/ml/µg prt. Moreover, the “cAMP production (pmol/ml/µg prt) … at 10 µM” value was determined as 0 pmol/ml/µg prt.

B9: Seq. ID. No. 204 (peptide)
peptide: VH[αMeP]EGT[αMePhe(2,6-F2)]TS[αMeD][αMeBip(OMe)][αMeAPPA]
modifications: not fully specified (C-terminus); reading uncertain
For the molecule B9, the “cAMP production (pmol/ml/µg prt) … at 1 nM” value came out at 9 pmol/ml/µg prt; the “cAMP production (pmol/ml/µg prt) … at 10 nM” value was 6 pmol/ml/µg prt; the “cAMP production (pmol/ml/µg prt) … at 100 nM” value came to 5 pmol/ml/µg prt; the “cAMP production (pmol/ml/µg prt) … at 1 µM” value turned out to be 3 pmol/ml/µg prt. Besides, the “cAMP production (pmol/ml/µg prt) … at 10 µM” value was found to be 0 pmol/ml/µg prt.

B10: Seq. ID. No. 70 (peptide)
peptide: VHAEGT[αMePhe(2-F)]TS[αMeD][αMeBip(OMe)][hhPhe]-NH2
With B10, the “cAMP production (pmol/ml/µg prt) … at 1 nM” value stood at 2 pmol/ml/µg prt; the “cAMP production (pmol/ml/µg prt) … at 10 nM” value was found to be 0 pmol/ml/µg prt; the “cAMP production (pmol/ml/µg prt) … at 100 nM” value amounted to 0 pmol/ml/µg prt; the “cAMP production (pmol/ml/µg prt) … at 1 µM” value came out at 0 pmol/ml/µg prt. Also, the “cAMP production (pmol/ml/µg prt) … at 10 µM” value is 0 pmol/ml/µg prt.

B11: Seq. ID. No. 208 (peptide)
peptide: VVH[αMeP]QGTFTSD[αMeBip(OMe)][hhPhe]
modifications: not fully specified (C-terminus); printed as VVH-(αMe-Pro)-QGTFTSD-(αMe-Bip(OMe))-(APPA)
In the case of B11, the “cAMP production (pmol/ml/µg prt) … at 1 nM” value turned out to be 4 pmol/ml/µg prt; the “cAMP production (pmol/ml/µg prt) … at 10 nM” value was 2 pmol/ml/µg prt; the “cAMP production (pmol/ml/µg prt) … at 100 nM” value stood at 0 pmol/ml/µg prt; the “cAMP production (pmol/ml/µg prt) … at 1 µM” value is 0 pmol/ml/µg prt. Further, the “cAMP production (pmol/ml/µg prt) … at 10 µM” value came to 0 pmol/ml/µg prt.

B12: Seq. ID. No. 169 (peptide)
peptide: VHSEGT[αMePhe(2-F)]T[αMeS]D[αMeBip(OMe)][αMeAPPA]
modifications: not fully specified (C-terminus); printed as VHSEGT-(αMe-2FPhe)-T-(αMe-Ser)-D-(αMe-Bip(OMe))-(αMe-APPA); reading uncertain
Take B12: the “cAMP production (pmol/ml/µg prt) … at 1 nM” value is 5 pmol/ml/µg prt; the “cAMP production (pmol/ml/µg prt) … at 10 nM” value amounted to 2 pmol/ml/µg prt; the “cAMP production (pmol/ml/µg prt) … at 100 nM” value worked out at 0 pmol/ml/µg prt; the “cAMP production (pmol/ml/µg prt) … at 1 µM” value was determined as 0 pmol/ml/µg prt. Besides, the “cAMP production (pmol/ml/µg prt) … at 10 µM” value is 0 pmol/ml/µg prt.

B13: Seq. ID. No. 189 (peptide)
peptide: VHSQGT[αMePhe(2-F)]TS[αMeD][αMeBip(OMe)][αMeAPPA]
modifications: not fully specified (C-terminus); printed as VHSQGT-(αMe-2FPhe)-TS-(αMe-Asp)-(αMe-Bip(OMe))-(αMe-APPA); reading uncertain
Consider B13, for which the “cAMP production (pmol/ml/µg prt) … at 1 nM” value came to 4 pmol/ml/µg prt; the “cAMP production (pmol/ml/µg prt) … at 10 nM” value worked out at 2 pmol/ml/µg prt; the “cAMP production (pmol/ml/µg prt) … at 100 nM” value was found to be 0 pmol/ml/µg prt; the “cAMP production (pmol/ml/µg prt) … at 1 µM” value was determined as 0 pmol/ml/µg prt. Besides, the “cAMP production (pmol/ml/µg prt) … at 10 µM” value stood at 0 pmol/ml/µg prt.

B14: Seq. ID. No. 113 (peptide)
peptide: VH[Aib]EGTFT[αMeS][αMeD][Bip(2'-Et-4'-OMe)][αMeAPPA]
modifications: not fully specified (C-terminus); printed as VH-Aib-EGTFT-(αMe-Ser)-(αMe-Asp)-Bip(OMe)-(αMe-APPA); reading uncertain
B14: the “cAMP production (pmol/ml/µg prt) … at 1 nM” value was 4 pmol/ml/µg prt; the “cAMP production (pmol/ml/µg prt) … at 10 nM” value worked out at 2 pmol/ml/µg prt; the “cAMP production (pmol/ml/µg prt) … at 100 nM” value is 0 pmol/ml/µg prt; the “cAMP production (pmol/ml/µg prt) … at 1 µM” value turned out to be 0 pmol/ml/µg prt. Moreover, the “cAMP production (pmol/ml/µg prt) … at 10 µM” value amounted to 0 pmol/ml/µg prt.

B15: Seq. ID. No. 63 (peptide)
peptide: VH[Aib]EGTFTS[αMeD][αMeBip(OMe)][hhPhe]-NH2
For the molecule B15, the “cAMP production (pmol/ml/µg prt) … at 1 nM” value amounted to 20 pmol/ml/µg prt; the “cAMP production (pmol/ml/µg prt) … at 10 nM” value was 18 pmol/ml/µg prt; the “cAMP production (pmol/ml/µg prt) … at 100 nM” value is 16 pmol/ml/µg prt; the “cAMP production (pmol/ml/µg prt) … at 1 µM” value amounted to 14 pmol/ml/µg prt. Further, the “cAMP production (pmol/ml/µg prt) … at 10 µM” value amounted to 12 pmol/ml/µg prt.

B16: Seq. ID. No. 39 (peptide)
peptide: VH[Aib]EGTFT[αMeS]D[αMeBip(OMe)][hhPhe]-NH2
Turning to B16, the “cAMP production (pmol/ml/µg prt) … at 1 nM” value was 17 pmol/ml/µg prt; the “cAMP production (pmol/ml/µg prt) … at 10 nM” value worked out at 15 pmol/ml/µg prt; the “cAMP production (pmol/ml/µg prt) … at 100 nM” value is 12 pmol/ml/µg prt; the “cAMP production (pmol/ml/µg prt) … at 1 µM” value was found to be 8 pmol/ml/µg prt. For the same molecule, the “cAMP production (pmol/ml/µg prt) … at 10 µM” value amounted to 6 pmol/ml/µg prt.

B17: Seq. ID. No. 44 (peptide)
peptide: VH[αMeP]QGT[αMePhe(2-F)]T[αMeS]D[αMeBip(OMe)][hhPhe]-NH2
As for B17, the “cAMP production (pmol/ml/µg prt) … at 1 nM” value stood at 5 pmol/ml/µg prt; the “cAMP production (pmol/ml/µg prt) … at 10 nM” value stood at 3 pmol/ml/µg prt; the “cAMP production (pmol/ml/µg prt) … at 100 nM” value turned out to be 0 pmol/ml/µg prt; the “cAMP production (pmol/ml/µg prt) … at 1 µM” value was found to be 0 pmol/ml/µg prt. The “cAMP production (pmol/ml/µg prt) … at 10 µM” value turned out to be 0 pmol/ml/µg prt.

Values taken from patent publication US20120264685A1 (priority 2009, published 2012).
